System: ABCB1 (MDR1) gene, exon 4
Experiment: CRISPR/Cas9 HDR template insertion (ABCB1-1Δ knock-in) in liver organoids, amplicon sequencing
Format: cell-based, canine
Excerpt: The HDR template was a Megamer single-stranded DNA (ssDNA) fragment ordered from IDT. It was designed with 35 bp homology arms with a total length of the ssDNA being 337 bp. The HDR template used the exact sequence as the canine organoids were derived from, with the only difference being the 4 bp deletion [ATAG] near the middle of the strand. Both the positive and negative strand were reconstituted separately to determine which incorporation was most efficient.
Approximately 500,000 cells were pooled for each electroporation cuvette. Media was removed from the wells, and organoids were resuspended in 500 μL Advanced DMEM/F12 (Gibco; Ref 12634-010). Organoids were centrifuged at 700 g at 4° C. for 5 min to form a pellet. Media was removed down to 500 μL, and the pellet was resuspended with 500 μL of TrypLETM Express (Gibco, Ref 12604-021) and pipette mixed approximately 15 times to assist in dissociation. Organoids were immediately placed in the hot water bath for 10 minutes at 37° C. and halfway through they were briefly (1 s) vortexed twice. After incubation, the sample was pipette mixed (5 times) and 10 μL of the sample was taken to determine cell concentration and check for successful dissociation. As described in Merenda et al. 2017, clusters of 10-15 cells increased survival post electroporation compared to a single cell suspension (Merenda et al., 2017). Immediately 6 mL of Advanced DMEM/F12 was added to stop the chemical dissociation. Again, organoids were centrifuged at 700 g at 4° C. for 5 min to form a pellet and the supernatant was removed.
During dissociation, the ribonucleoprotein (RNP) was prepared. 150 pmol of crRNA (IDT) and 150 pmol of tracrRNA (IDT) were mixed and heated for 5 min at 95° C. in a thermocycler. Next, the mixture was removed from the heat and allowed to cool to room temperature for ˜10 minutes. Then, 300 pmol of Cas9 Nuclease V3 (IDT) was added and incubated for 10 min at room temperature (RT).
The organoid pellet was resuspended in 90 μL of BTXpress electroporation solution (BTX; Ref 45-0801). […] The solution was added to a chilled cuvette and after the addition of the solution, the cuvette was checked for bubbles, the outside was wiped dry, and placed in a NEPA21 electroporator (Nepagene). The electroporation details can be seen in Table 6. A control GFP plasmid was electroporated separately to help determine the efficiency of electroporation. It is common to add a buffer or media solution to assist in cell recovery after electroporation. Immediately following electroporation, 400 μL of room temperature CMGF+ R/G organoid media as previously described was added to the cuvette, and the organoids were transferred to a 1.5 mL tube. The cell mixture was incubated for 30 min at RT then centrifuged at 700 g for 5 min to form a pellet. […]

[1] = cold shock: 30° C. for 48 hours after electroporation
[2] = incubation at 37° C. after electroporation

B1: Anti Hot: 337 bp ssDNA HDR template, antisense strand, with 4 bp [ATAG] deletion, electroporated with Cas9 RNP (nucleic acid)
antisense: CAAAGCGATAAGTTTAACCGAACTATCCAACATATACAACCACCCCTGTTACCGACGGTAGTAGGTACCTCGACGTGAGGGAGAGTACTACGACCAAAAACCTTTGTACTGTCGAAACGTTTACGTCCTTAAAGTTCTTTGTTTTGAAAAGGTCAATATTAATTACTTTCATTCATAATAAACACCGTGACTAGAATCTCCAAACTTCTTTTTAGACAATGAATCTTCCTACAAATCGGGAGTAATTTATGTAATCACACAAATAAAGACCCCCTTTTCCCTCCTCAGACTCGATGTCAATTATAACCATTATTCAAACTCTTCTATTATTAGTATT
- estimated efficiency of correct HDR template insertion [1]: 0%
- estimated efficiency of correct HDR template insertion [2]: ~0.00303%

B2: Sense Hot: 337 bp ssDNA HDR template, sense strand, with 4 bp [ATAG] deletion, electroporated with Cas9 RNP (nucleic acid)
sense: GTTTCGCTATTCAAATTGGCTTGATAGGTTGTATATGTTGGTGGGGACAATGGCTGCCATCATCCATGGAGCTGCACTCCCTCTCATGATGCTGGTTTTTGGAAACATGACAGCTTTGCAAATGCAGGAATTTCAAGAAACAAAACTTTTCCAGTTATAATTAATGAAAGTAAGTATTATTTGTGGCACTGATCTTAGAGGTTTGAAGAAAAATCTGTTACTTAGAAGGATGTTTAGCCCTCATTAAATACATTAGTGTGTTTATTTCTGGGGGAAAAGGGAGGAGTCTGAGCTACAGTTAATATTGGTAATAAGTTTGAGAAGATAATAATCATAA
- estimated efficiency of correct HDR template insertion [1]: ~0.0705%
- estimated efficiency of correct HDR template insertion [2]: ~0.0348%
